Molecular target: the molecule itself
Experiment: single-molecule pulldown (SiMPull) with photobleaching step counting; HEK 293T cells surface-labelled with BG-LD555, lysed in 1.2% IGEPAL, diluted in 0.1% IGEPAL buffer; HA-SNAP constructs captured by biotinylated anti-HA antibody on NeutrAvidin/PEG slides; TIRF; percent dimerization = two-step bleaching min-max normalised (5% background, 55% for full-length mGluR2); in some experiments saturating ligands (TASP, MNI …)

B1: HA-SNAP-mGluR3-C127A (receptor, rat, UniProt P31422 23-879, looked up)
chain: LGDHNFMRREIKIEGDLVLGGLFPINEKGTGTEECGRINEDRGIQRLEAMLFAIDEINKDNYLLPGVKLGVHILDTCSRDTYALEQSLEFVRASLTKVDEAEYMAPDGSYAIQENIPLLIAGVIGGSYSSVSIQVANLLRLFQIPQISYASTSAKLSDKSRYDYFARTVPPDFYQAKAMAEILRFFNWTYVSTVASEGDYGETGIEAFEQEARLRNICIATAEKVGRSNIRKSYDSVIRELLQKPNARVVVLFMRSDDSRELIAAANRVNASFTWVASDGWGAQESIVKGSEHVAYGAITLELASHPVRQFDRYFQSLNPYNNHRNPWFRDFWEQKFQCSLQNKRNHRQVCDKHLAIDSSNYEQESKIMFVVNAVYAMAHALHKMQRTLCPNTTKLCDAMKILDGKKLYKEYLLKINFTAPFNPNKGADSIVKFDTFGDGMGRYNVFNLQQTGGKYSYLKVGHWAETLSLDVDSIHWSRNSVPTSQCSDPCAPNEMKNMQPGDVCCWICIPCEPYEYLVDEFTCMDCGPGQWPTADLSGCYNLPEDYIKWEDAWAIGPVTIACLGFLCTCIVITVFIKHNNTPLVKASGRELCYILLFGVSLSYCMTFFFIAKPSPVICALRRLGLGTSFAICYSALLTKTNCIARIFDGVKNGAQRPKFISPSSQVFICLGLILVQIVMVSVWLILETPGTRRYTLPEKRETVILKCNVKDSSMLISLTYDVVLVILCTVYAFKTRKCPENFNEAKFIGFTMYTTCIIWLAFLPIFYVTSSDYRVQTTTMCISVSLSGFVVLGCLFAPKVHIVLFQPQKNVVTHRLHLNRFSVSGTATTYSQSSASTYVPTVCNGREVLDSTTSSL
modifications: SNAP tag labelled with BG-LD555 (BG-LD655 in two-colour SiMPull)
notes: mGluR3, full-length receptor with the intersubunit disulfide cysteine of the LBD mutated; source: HEK 293T, transfected, in lysate; not shown: HA, N-terminal, kept; SNAP, N-terminal, kept
For B1, the “fold reduction in dimerization against SNAP-mGluR3” value was 2 fold.

Reference: PMC8102066, “Differences in interactions between transmembrane domains tune the activation of metabotropic glutamate receptors” (eLife, 2021)
